Measurements reported in PMC10284694, “Genome expansion by a CRISPR trimmer-integrase”.
Changes are numbered by the printed parent chain. Each block holds one molecule with its values, some of them ahead of it.

How the values were obtained:
[1] = target: Megasphaera NM10-related Cas1 (Megasphaera NM10-related); assay: cryo-EM structure; 50 µM Cas1, 50 µM Cas2/DEDDh and 12.5 µM prespacer or half-site DNA mixed, dialysed 2 h at room temperature, purified over Superose 6 Increase 10/300 GL; complexes bound to DNA
[2] = target: Megasphaera NM10-related Cas2 and DEDDh fusion protein (Cas2/DEDDh) (Megasphaera NM10-related); assay: as above
[3] = target: T1, Cas1 (type I-E);Cas2/DEDDh (natural Cas2-DEDDh fusion) (Megasphaera NM10-related;Megasphaera …, UniProt A0AA82WPF9;A0AA82WPG7 1-316;1-289, |); assay: cryo-EM structure (2.9 A); Cryo-EM sample buffer not in the material; DNA annealed in 20 mM HEPES pH 7.5, 25 mM KCl, 10 mM MgCl2; protein storage 20 mM HEPES pH 7.5, 500 mM KCl, 1 mM TCEP, 5% glycerol; details: protein: recombinant;recombinant; tags: 10xHis-MBP removed with TEV;10xHis-MBP removed with TEV; chain copies: 4;2; 23 bp duplex, 3' overhangs 15 nt on both strands (5 nt visible)
T1 sequence 1: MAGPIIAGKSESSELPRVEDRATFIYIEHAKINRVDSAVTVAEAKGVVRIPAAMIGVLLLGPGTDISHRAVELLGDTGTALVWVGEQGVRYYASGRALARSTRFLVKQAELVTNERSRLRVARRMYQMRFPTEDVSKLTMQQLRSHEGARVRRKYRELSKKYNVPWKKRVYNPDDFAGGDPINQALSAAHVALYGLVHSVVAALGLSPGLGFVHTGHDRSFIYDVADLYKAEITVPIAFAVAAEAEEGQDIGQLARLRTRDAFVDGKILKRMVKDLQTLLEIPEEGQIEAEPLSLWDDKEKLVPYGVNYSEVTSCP
T1 sequence 2: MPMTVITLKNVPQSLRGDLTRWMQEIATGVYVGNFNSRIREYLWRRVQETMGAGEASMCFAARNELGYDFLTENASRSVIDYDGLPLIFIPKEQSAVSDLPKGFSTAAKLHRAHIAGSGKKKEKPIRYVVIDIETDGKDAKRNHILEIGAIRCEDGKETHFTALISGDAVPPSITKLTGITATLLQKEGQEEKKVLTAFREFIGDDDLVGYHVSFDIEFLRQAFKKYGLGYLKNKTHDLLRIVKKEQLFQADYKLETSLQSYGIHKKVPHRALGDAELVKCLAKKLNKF

[4] = target: T1, Cas1 (type I-E);Cas2/DEDDh (natural …); assay: cryo-EM structure (3.1 A); Cryo-EM sample buffer not in the material; DNA annealed in 20 mM HEPES pH 7.5, 25 mM KCl, 10 mM MgCl2; protein storage 20 mM HEPES pH 7.5, 500 mM KCl, 1 mM TCEP, 5% glycerol; details: protein: recombinant;recombinant; tags: 10xHis-MBP removed with TEV;10xHis-MBP removed with TEV; chain copies: 4;2; 23 bp duplex, 3' overhangs 15 nt on both strands before trimming

B1: CryoEM prespacer, PAM-deficient (dsDNA)
DNA 1: ACTCATGATGCACAAGTGGTTGCGCGTGAACCCAGTTG
DNA 2: GCAACCACTTGTGCATCATGAGTGATGAAACCCAGTTG
modifications: phosphorothioate between nt 28 and 29 of each strand
- binding result [3]: binds

B2: CryoEM prespacer, TT PAM-containing (dsDNA)
DNA 1: B1 DNA 1 with A29T, A30T
DNA 2: B1 DNA 2
modifications: phosphorothioate between nt 33 and 34 of strand 1 and between nt 28 and 29 of strand 2
- binding result [4]: binds

Continued, values first:

- stoichiometry N [1]: 2
Molecule: Megasphaera NM10-related Cas1 (enzyme)

- stoichiometry N [2]: 2
Molecule: Megasphaera NM10-related Cas2 and DEDDh fusion protein (Cas2/DEDDh) (enzyme)
